# In patent US20060140870A1, “Method for assessing tumor response to cancer treatment” (General Electric Company, priority 2004, published 2006):
# Assay: Relaxivity (T1) of the contrast agent as a measure of molecular conformation
# Format: physicochemical
# Settings: low for an elongated conformation, high for a globular (folded) one
row,Substance,relaxivity
1,Polylysine-Gd-DTPA [Gd- DTPA polylysine],about 8 sec.−1 mM−1
2,albumen,about 15 sec.−1 mM−1
